Measured values published in paper PMC8865534.

Molecular target: NHE1-ECL1-rIgG, the first extracellular loop of the ALV-J receptor NHE1 fused to rabbit IgG Fc (expressed in DF-1 cells) (chicken)

For “Env protein (envelope glycoprotein, gp85-gp37) of ALV-J strain TBC-J6, wild type (natural protein)”, the reduction of ALV-J infection (p27 mRNA level by qPCR) of DF-1 cells transfected with 250 ng pCAGGS-env(wt) for 2 days; the receptor is the endogenous NHE1 of DF-1 cells was 91%.
